Assay results taken from doi:10.1101/2022.02.11.480038 (2022).
Where no end group is shown, it is not given here. [ ]: non-standard residue; d: D form. pS = N[C@@H](COP(=O)(O)O)C(=O)O

B1: Human GABARAP (residues 1-116) (natural protein)
chain: MKFVYKEEHPFEKRRSEGEKIRKKYPDRVPVIVEKAPKARIGDLDKKKYLVPSDLTVGQFYFLIRKRIHLRAEDALFFFVNNVIPPTSATMGQLYQEHHEEDFFLYIAYSDESVYG

Tests used:
Test in all cases: ITC
[1] = target: Human LC3B (residues 1-120) (human, UniProt Q9GZQ8 1-120)
[2] = target: B1
[3] = target: TEX264 269-278 S271A,S272A
GABARAP Y5F H9A mutant = GABARAP Y5F H9A mutant (human, UniProt O95166 1-116, Y5F | H9A)
Sequence of GABARAP Y5F H9A mutant (O95166 1-116 Y5F/H9A): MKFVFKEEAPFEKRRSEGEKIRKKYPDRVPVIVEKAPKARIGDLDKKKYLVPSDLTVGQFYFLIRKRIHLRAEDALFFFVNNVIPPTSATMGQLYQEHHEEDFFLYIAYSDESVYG

Y5F H9A K48A = target: Y5F H9A K48A

Row | Kd [1] [µM] | Kd [2] [µM] | Kd [3] [µM] | Kd (GABARAP Y5F H9A mutant) [µM] | Kd (Y5F H9A K48A) [µM] | Binder
1 | 0.25 | 0.25 |  |  |  | [pS]G[pS][pS]FEELDL [TEX264 peptide (residues 269-278) with p-S269, p-S271, p-S272]
2 | 21 | 47 |  |  |  | SGSSFEELDL [TEX264 LIR peptide (residues 269-278), unphosphorylated wild type]
3 | 5 | 2.2 |  |  |  | EGEEFEELDL [phosphomimetic TEX264^(S269E, S271E, S272E) peptide (3SE-LIR)]
4 | 6.8 | 2.2 |  |  |  | DGDDFEELDL [phosphomimetic TEX264^(S269D, S271D, S272D) peptide (3SD-LIR)]
5 |  |  | 72 |  |  | B1
6 | 5.2 | 2.3 |  |  |  | SGEEFEELDL [phosphomimetic TEX264^(S271, 272E) peptide (2SE-LIR)]
7 | 0.37 | 0.52 |  | 2.2 | 30 | SG[pS][pS]FEELDL [phosphorylated TEX264 LIR (residues 269-278 with p-S271,p-S272)]
8 | 0.57 | 2.1 |  |  |  | SGS[pS]FEELDL [TEX264 peptide (residues 269-278) with S272 phosphorylation (p-S272)]
9 | 22 | 9.3 |  |  |  | [pS]GASGSSFEELDL [TEX264 LIR peptide (residues 266-278) with S266 phosphorylation (p-S266)]
10 | 39 | 61 |  |  |  | SGASGSSFEELDL [TEX264 LIR peptide (residues 266-278), unphosphorylated]
11 | 7.6 | 2.1 |  |  |  | SGDDFEELDL [phosphomimetic TEX264^(S271D, S272D) peptide (2SD-LIR)]
